Assay results: patent publication US10172951B2, “Dendrimer based nanodevices for therapeutic and imaging purposes” (priority 2009, dated 2019)

Key:
BV-2 cells = test: ROS assay, percent reduction in H2O2 in LPS-treated BV-2 cells (Example 19); type: cell-based, mouse; conditions: for reduction in H2O2 levels: 0.5 mM NAC (equivalent), co-treatment with LPS
Protocol: Cells were treated with lipopolysaccharide (LPS) to induce the production of ROS. The cells were treated with LPS (100 ng/ml) and either NAC, PAMAM-S—S-NAC, or free PAMAM-NH2 dendrimers at appropriate concentrations to study the efficacy of the conjugates for reducing the ROS concentrations. In order to quantify the efficacy of conjugates, H2O2 released from BV-2 cells (ROS) was measured using the Amplex Red Hydrogen Peroxide/Peroxidase Assay Kit using previously established procedures.

Solubility in PBS/H2O = type: physicochemical
[1] = test system: Mouse microglial cell line (BV-2); test: In vitro cytotoxicity, MTT assay (Example 19)
Text: In vitro cytotoxicity of the conjugate, dendrimer and NAC, at conditions similar to that used in the efficacy assays, was investigated by MTT assay. Mouse microglial cell line (BV-2) was obtained from Children's Hospital of Michigan Cell Culture Facility. These cells were used because the eventual in vivo applications seek to target microglial cells that become activated as a result of neuroinflammation.
The lipopolysaccharide (LPS) was used to activate the cells for the ROS assay. For the cytotoxicity study, the LPS treatment was continuous for 24 hours. For both groups, the LPS concentration used was 100 ng/ml. Three concentrations of NAC were studied: 0.5 mM, 2 mM and 8 mM. For the conjugate assays, the concentrations used corresponded to equivalent NAC doses of the free drug treatment groups. Similarly, the dendrimer assays were run by using dendrimer concentrations that were equivalent to conjugate treatments. Control groups included cells receiving only LPS and no other treatment and cells with no LPS or other treatment. The proportion of viable cells in the treated group was compared to that of negative control. The cell viability is expressed as mean±SD of three samples per group, and assessed by t-test.

[2] = GSH triggered NAC release from PAMAM dendrimer-NAC conjugates (RP-HPLC); type: physicochemical; conditions: for amount released: over 20 hours
Protocol: (§1) Appropriate amounts of PAMAM-S—S-NAC conjugate were dissolved in release media (Citrate or PBS buffers) to form a solution of 1 mg/ml PAMAM-S—S-NAC. One of the thiol containing molecules (GSH, Cys or BSA) was added to the conjugates to form 10 mM, 2 mM, 0.5 mM 0.1 mM or 2 μM overall thiol group concentrations and to initiate the release of NAC. All samples were run as triplicates for statistical analysis.
As control samples, conjugates were analyzed in both release media in the absence of reducing agents. The solutions were kept at 37° C. and stirred continuously. At predetermined time intervals, […] of samples were withdrawn and immediately analyzed with RP-HPLC and the concentrations of analytes were determined by using appropriate calibrations prepared under same conditions.
Dendrimer NAC conjugates were analyzed for their drug release mechanism and kinetics in the presence of GSH, Cys and BSA. Buffer solutions with pH 5 (Citrate Buffer) and pH 7.4 (Phosphate Buffered Saline) containing various concentrations of these thiol containing moieties were used in release studies.
All GSH concentrations studied were between average plasma (2 μM) and intracellular (2-10 mM) GSH levels. Various GSH concentrations were used in order to determine the GSH dependent release kinetics of the conjugate. The conjugate solutions contained 730 μM NAC in the conjugated form (1 mg/ml PAMAM-S—S-NAC) at the beginning of the release studies. GSH concentration in the release media was compared to the conjugated NAC concentrations in the release solutions for analysis of the release kinetics and mechanism.
The release of NAC from the conjugates was investigated in the presence of GSH at intracellular and extracellular concentrations. It was assumed that the release of NAC would occur by the disulfide exchange reaction. GSH and its oxidized form (GSSG) are responsible for forming the intracellular redox buffer. Intracellularly, GSH takes the role of attacking thiolate moiety and gets oxidized in the process while cleaving the existing disulfide bonds.
The conjugates were also analyzed in the absence of GSH to verify the stability of the disulfide linkage at physiological pH. […] The extent of the release of drug from both dendrimer-NAC conjugates was also analyzed at plasma and intracellular GSH concentrations. The conjugates and the GSH in required amounts were added to PBS solution, and the solution was analyzed at various time intervals by HPLC for up to 17 hours. UV absorbance peak areas were used to determine the concentrations of each of the species in the solution, based on appropriate calibration curves.

[3] = Stability of conjugate in bovine serum albumin (BSA) solution; type: physicochemical; conditions: pH 7.4 and pH 5, over 24 hours
Text: To investigate the reducing activity of Cys in protein structures, bovine serum albumin (BSA) was chosen for release studies since it is the most abundant protein in plasma. Additionally, for intravenous administration of conjugates, it is important for the drug to stay intact with the carrier until the conjugate reaches its final destination within the body. Thus the release characteristic in the presence of albumin is crucial for intravenous applications. The release studies in the presence of BSA were carried out at pH 7.4 and pH 5 as well. The BSA concentrations used for the studies were adjusted so that the overall Cys concentrations in BSA release media were the same as the GSH and Cys release studies, discussed earlier. In addition to the five thiol concentrations studied, the stability of the conjugate at plasma BSA concentration was also analyzed.

[4] = Cysteine triggered NAC release from PAMAM-S-S-NAC; type: physicochemical; conditions: pH 7.4
Protocol: as §1

[5] = 10 mM GSH, PBS pH 7.4, within 1 hour
[6] = 10 mM GSH, after the initial 1 hour release (time not given)

Substance: PAMAM-NH—CO-Ethyl-S—S-NAC [PAMAM-S—S-NAC]
- reduction in H2O2 levels (BV-2 cells; 24 hours): 72%
- reduction in H2O2 levels (BV-2 cells; 72 hours): 101%
- reduction in effective dose (BV-2 cells; 3 hours of treatment, lower drug doses (0.5 mM and 2 mM)): ≤ 4 fold
- reduction of effective dose of NAC (BV-2 cells; continuous treatment, 0.5 mM conjugate vs 8 mM free NAC): about 16 times
- Solubility in PBS/H2O (Solubility in PBS/H2O): Highly
- cell survival rate ([1]; highest dose): 84%
- cell survival rate ([1]; lowest concentration of the conjugate): greater than 95%
- NAC payload in GS-S-NAC (NAC-GSH) form [2, 5]: 19%
- NAC payload released in free form [2, 5]: 47%
- total NAC release [2, 5]: 66%
- NAC payload as GS-S-NAC [2, 6]: 14%
- NAC payload in free form [2, 6]: 41%
- NAC release ([2]; PBS buffer without GSH, 17 hours): did not release any of the NAC they carried
- duration of sustained drug release ([2]; lysosomal pH): about 8 hours
- NAC release ([2]; pH 5, 2 μM GSH, within 20 hours): no significant amount NAC was released
- amount released ([2]; pH 5, 100 μM GSH): 15%
- amount released ([2]; pH 5, 500 μM GSH): 58%
- time to nearly completed release ([2]; pH 5, 2000 μM GSH): up to 20 hours
- time to nearly completed release ([2]; pH 5, 10,000 μM GSH): ≤ 7 h
- maximum extent of payload release ([2]; pH 5.0, intracellular GSH concentrations): about 90%
- NAC payload released ([2]; pH 5, intracellular GSH concentrations (excess), within 20 hours): 95%
- NAC release ([2]; pH 5, no GSH): did not release any NAC
- NAC release ([2]; pH 7.4, 2 μM GSH): no detectable level of NAC released
- NAC release ([2]; pH 7.4, 100 μM GSH): 6%
- NAC release ([2]; pH 7.4, 500 μM GSH): 31%
- payload released ([2]; pH 7.4, 2000 μM GSH): 60%
- payload released ([2]; pH 7.4, 10,000 μM GSH): 66%
- NAC release ([2]; pH 7.4, absence of GSH, within 3 days): did not release any NAC
- maximum extent of payload release ([2]; pH 7.4, intracellular GSH concentrations): approximately 65%
- drug released ([2]; pH 7.4, intracellular GSH levels, in less than two hours): More than 60%
- NAC payload found as GS-S-NAC or NAC-NAC ([2]; plasma GSH concentration (2 μM)): 1%
- release of free NAC ([2]; plasma GSH concentration (2 μM), 17 hours): did not release any detectable levels of free NAC
- NAC release in presence of BSA [3]: no NAC being released
- rate of NAC release with Cys compared to GSH [4]: slightly faster rates
